Assay results as given in US20200340042, “IN VITRO SELECTION FOR NUCLEIC ACID […]” (McMaster University, published 2020).

Legend:
[1] = target: T1, glutamate dehydrogenase (rGDH, recombinant) (Clostridium difficile, UniProt P27346 SEQ:1-421); assay: pulldown; competes with Anti-G1T1, same epitope; details: tags: His-tag; expressed in E. coli; Pro-Lab Diagnostics; chain copies: 6; label: 32P; linear
T1 sequence: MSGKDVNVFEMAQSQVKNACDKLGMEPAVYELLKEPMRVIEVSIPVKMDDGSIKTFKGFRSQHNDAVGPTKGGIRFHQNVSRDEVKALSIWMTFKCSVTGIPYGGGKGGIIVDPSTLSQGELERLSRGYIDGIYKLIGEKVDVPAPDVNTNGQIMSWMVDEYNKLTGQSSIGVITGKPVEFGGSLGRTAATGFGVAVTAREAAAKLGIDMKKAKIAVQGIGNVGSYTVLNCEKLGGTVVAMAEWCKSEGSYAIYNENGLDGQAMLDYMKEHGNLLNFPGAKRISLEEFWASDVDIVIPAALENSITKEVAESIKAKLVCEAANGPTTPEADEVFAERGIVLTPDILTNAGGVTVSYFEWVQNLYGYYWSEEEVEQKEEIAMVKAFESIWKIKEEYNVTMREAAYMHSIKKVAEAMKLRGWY

[2] = target: T1, glutamate dehydrogenase (rGDH, …); assay: pulldown; no affinity to rGDH; details: tags: His-tag; expressed in E. coli; Pro-Lab Diagnostics; chain copies: 6; label: 32P
Procedure: (§1) The pull-down assays were conducted in a total volume of 300 μL of 1× binding buffer containing 50 μL of bead-bound rGDH (final concentration ˜50 nM) and 100 μL of 100 nM captamer candidates for 30 min with gentle rotation. In parallel, negative controls consisting of the captamers incubated with uncoated beads were included. Following three washing steps, proteins and bound aptamers were eluted with 30 μL of elution buffer (20 mM Tris-HCl, 500 mM imidazole, pH 7.5) by shaking at 90° C. for 10 min. The resultant mixtures were then analyzed by 10% dPAGE, and quantified by Image Quant software. […] Pull-down assays were conducted in a total volume of 300 μL of 1× binding buffer containing 10 μL of bead-bound rGDH (final concentration ˜9.2 nM) and 100 μL of aptamers with serial dilutions for 30 min with gentle rotation. Following washing steps, the bound DNA was then analyzed by 10% dPAGE. The apparent dissociation constants (Kd) of each aptamer candidate were obtained by fitting the fractional bound DNA to the total aptamer concentration using a one-site binding model.
However, Capt-4 was a new sequence that was not observed in the previous selection. […] In this assay, each captamer candidate was incubated with bare NiMBs or rGDH-coated NiMBs, followed by elution of the bound captamer and radioactivity analysis by dPAGE (FIG. 2a).

[3] = target: T1, glutamate dehydrogenase (rGDH, …); assay: pulldown; […]; 50 mM HEPES, 150 mM NaCl, 10 mM MgCl2, 5 mM KCl, 0.02% Tween-20, pH 7.2, 25 C; details: tags: His-tag; expressed in E. coli; Pro-Lab Diagnostics; chain copies: 6; label: 32P
[4] = target: T1, glutamate dehydrogenase (rGDH, …); assay: pulldown; details: tags: His-tag; expressed in E. coli; Pro-Lab Diagnostics; chain copies: 6; label: 32P; linear
Procedure: as §1, with “100 μL of 1× binding buffer containing 100 nM γ-[³²P]-labeled captamer candidates was first denatured at 90° C. for 10 min, followed by incubation at RT for 20 min. The pull-down” for “The pull-down”, “10% dPAGE. […]” for “10% dPAGE. The apparent dissociation constants (Kd) of each aptamer candidate were obtained by fitting the fractional bound DNA to the total aptamer concentration using a one-site binding model.”
The inventors measured the dissociation constant (Kd) for Capt-2 and Capt-4 using the same pull-down assay, along with their linear counterparts, Lapt-2 and Lapt-4 (FIG. 2b). […]

[5] = target: bovine serum albumin (BSA) (UniProt P02769 P02769:25-607)
bovine serum albumin (BSA), sequence (P02769 25-607, one chain of several): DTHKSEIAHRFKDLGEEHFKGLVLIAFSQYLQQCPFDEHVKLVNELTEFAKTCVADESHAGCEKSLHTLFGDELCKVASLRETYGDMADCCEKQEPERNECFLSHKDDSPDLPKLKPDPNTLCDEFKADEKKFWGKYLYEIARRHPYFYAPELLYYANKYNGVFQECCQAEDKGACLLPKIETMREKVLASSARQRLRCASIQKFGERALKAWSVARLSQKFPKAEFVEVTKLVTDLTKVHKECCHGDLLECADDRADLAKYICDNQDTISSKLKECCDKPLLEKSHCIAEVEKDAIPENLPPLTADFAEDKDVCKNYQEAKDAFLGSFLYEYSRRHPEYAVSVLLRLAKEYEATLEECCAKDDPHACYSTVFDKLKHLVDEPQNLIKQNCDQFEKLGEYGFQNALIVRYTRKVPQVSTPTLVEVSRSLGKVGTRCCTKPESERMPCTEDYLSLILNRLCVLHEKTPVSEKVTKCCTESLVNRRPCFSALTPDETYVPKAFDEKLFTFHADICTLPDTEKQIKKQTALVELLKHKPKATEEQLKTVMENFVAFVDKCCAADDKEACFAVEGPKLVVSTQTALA

toxin B (TcdB) = toxin B (TcdB) (Clostridium difficile, UniProt P18177 SEQ:2-2366)
toxin B (TcdB), sequence (P18177 2-2366): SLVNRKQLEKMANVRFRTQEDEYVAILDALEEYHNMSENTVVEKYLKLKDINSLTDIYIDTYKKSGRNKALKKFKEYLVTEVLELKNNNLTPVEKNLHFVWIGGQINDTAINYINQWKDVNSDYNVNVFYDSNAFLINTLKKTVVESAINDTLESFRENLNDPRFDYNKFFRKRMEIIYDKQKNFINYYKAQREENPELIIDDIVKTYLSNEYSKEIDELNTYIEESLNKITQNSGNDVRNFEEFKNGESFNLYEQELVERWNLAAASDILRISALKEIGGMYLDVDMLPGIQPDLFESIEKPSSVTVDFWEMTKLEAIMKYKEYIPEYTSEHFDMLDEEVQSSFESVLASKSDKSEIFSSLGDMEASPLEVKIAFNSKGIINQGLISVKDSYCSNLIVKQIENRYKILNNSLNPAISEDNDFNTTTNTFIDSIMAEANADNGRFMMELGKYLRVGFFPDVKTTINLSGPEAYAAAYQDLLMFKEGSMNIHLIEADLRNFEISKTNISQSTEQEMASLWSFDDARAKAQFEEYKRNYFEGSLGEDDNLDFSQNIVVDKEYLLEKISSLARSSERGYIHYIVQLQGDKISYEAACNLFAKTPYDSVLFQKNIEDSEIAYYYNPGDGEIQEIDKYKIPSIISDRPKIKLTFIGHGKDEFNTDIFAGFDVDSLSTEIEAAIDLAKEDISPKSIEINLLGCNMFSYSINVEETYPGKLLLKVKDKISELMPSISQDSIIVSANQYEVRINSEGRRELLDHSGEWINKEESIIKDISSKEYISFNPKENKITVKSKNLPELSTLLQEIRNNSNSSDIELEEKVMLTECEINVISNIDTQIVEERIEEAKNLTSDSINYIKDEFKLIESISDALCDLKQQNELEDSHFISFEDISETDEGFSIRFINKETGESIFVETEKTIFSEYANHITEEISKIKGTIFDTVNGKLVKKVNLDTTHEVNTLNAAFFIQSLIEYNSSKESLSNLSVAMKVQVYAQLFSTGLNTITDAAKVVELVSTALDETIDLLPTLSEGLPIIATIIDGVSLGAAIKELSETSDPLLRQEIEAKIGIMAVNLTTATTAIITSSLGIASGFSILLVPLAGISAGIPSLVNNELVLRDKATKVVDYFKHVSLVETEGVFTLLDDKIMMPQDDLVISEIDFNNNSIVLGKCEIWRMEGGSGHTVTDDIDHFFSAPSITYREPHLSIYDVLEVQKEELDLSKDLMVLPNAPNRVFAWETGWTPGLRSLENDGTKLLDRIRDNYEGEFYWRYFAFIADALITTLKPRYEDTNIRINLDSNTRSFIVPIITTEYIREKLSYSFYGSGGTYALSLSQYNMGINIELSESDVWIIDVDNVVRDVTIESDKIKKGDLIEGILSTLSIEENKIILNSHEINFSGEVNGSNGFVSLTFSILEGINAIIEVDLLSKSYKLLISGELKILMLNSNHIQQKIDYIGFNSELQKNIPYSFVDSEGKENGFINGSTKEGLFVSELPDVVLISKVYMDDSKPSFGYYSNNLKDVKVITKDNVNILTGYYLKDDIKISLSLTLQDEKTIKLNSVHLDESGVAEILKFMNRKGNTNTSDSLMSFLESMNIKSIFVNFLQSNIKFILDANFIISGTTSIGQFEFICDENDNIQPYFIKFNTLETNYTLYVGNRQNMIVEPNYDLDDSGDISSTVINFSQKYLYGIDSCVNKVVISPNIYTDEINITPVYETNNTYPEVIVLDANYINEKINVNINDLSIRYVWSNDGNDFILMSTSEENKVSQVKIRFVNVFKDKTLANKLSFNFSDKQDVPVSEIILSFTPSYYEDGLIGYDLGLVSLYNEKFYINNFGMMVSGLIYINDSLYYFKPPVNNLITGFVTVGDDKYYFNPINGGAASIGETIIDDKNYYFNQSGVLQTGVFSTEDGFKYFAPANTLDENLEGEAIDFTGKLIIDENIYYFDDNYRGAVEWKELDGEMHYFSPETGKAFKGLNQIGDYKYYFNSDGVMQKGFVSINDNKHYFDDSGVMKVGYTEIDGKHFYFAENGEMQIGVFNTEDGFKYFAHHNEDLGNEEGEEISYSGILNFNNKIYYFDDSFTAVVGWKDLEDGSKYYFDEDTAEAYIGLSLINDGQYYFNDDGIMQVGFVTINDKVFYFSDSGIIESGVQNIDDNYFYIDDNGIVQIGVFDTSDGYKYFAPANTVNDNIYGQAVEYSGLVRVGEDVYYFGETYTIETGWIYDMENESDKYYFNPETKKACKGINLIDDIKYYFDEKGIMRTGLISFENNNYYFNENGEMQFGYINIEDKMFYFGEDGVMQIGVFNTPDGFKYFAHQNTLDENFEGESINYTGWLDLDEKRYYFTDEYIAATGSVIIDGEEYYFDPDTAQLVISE

toxin A (TcdA) = toxin A (TcdA) (Clostridium difficile, UniProt P16154 SEQ:1-2710)
[6] = target: T1, glutamate dehydrogenase (rGDH, …); assay: pulldown; 10 mM MgCl2, 150 mM NaCl, pH 7.2, 25 C; epitope distinct from aptamer 2; details: tags: His-tag; expressed in E. coli; Pro-Lab Diagnostics; chain copies: 6; label: 32P
Procedure: as §1, with “Following” for “The pull-down assays were conducted in a total volume of 300 μL of 1× binding buffer containing 50 μL of bead-bound rGDH (final concentration ˜50 nM) and 100 μL of 100 nM captamer candidates for 30 min with gentle rotation. In parallel, negative controls consisting of the captamers incubated with uncoated beads were included. Following”
(§2) The inventors measured the dissociation constant (Kd) for Capt-2 and Capt-4 using the same pull-down assay, along with their linear counterparts, Lapt-2 and Lapt-4 (FIG. 2b). […] The structural prediction with the m-fold program (http: //unafold.rna.albany.edu/?q=mfold) also provides a good rationale for the functionality of aptamer 2 in both circular and linear configurations, as the random-sequence nucleotides are predicted to form the same structural elements in both forms (FIG. 9). […]

[7] = target: T2, glutamate dehydrogenase (nGDH, native) (Clostridium difficile, UniProt P27346 SEQ:1-421); assay: FP filter; paper filter binding; binding buffer with 10 mM MgCl2, 1% BSA; details: tags: Pro-Lab Diagnostics; chain copies: 6 stated; label: 32P
T2 sequence: T1 sequence

[8] = target: T1, glutamate dehydrogenase (rGDH, …); assay: pulldown; 10 mM MgCl2, pH 7.2, 25 C; no detectable binding in dot blot (p157); details: tags: His-tag; expressed in E. coli; Pro-Lab Diagnostics; chain copies: 6; label: 32P; linear
Procedure: as §1, with “Following” for “The pull-down assays were conducted in a total volume of 300 μL of 1× binding buffer containing 50 μL of bead-bound rGDH (final concentration ˜50 nM) and 100 μL of 100 nM captamer candidates for 30 min with gentle rotation. In parallel, negative controls consisting of the captamers incubated with uncoated beads were included. Following”
as §2

[9] = target: T1, glutamate dehydrogenase (rGDH, …); assay: pulldown; competes with Anti-G1, Anti-G3, Anti-G7; details: tags: His-tag; expressed in E. coli; Pro-Lab Diagnostics; chain copies: 6; label: 32P; linear

B1: Anti-G3 (ssDNA)
DNA: CAGGTCCATCGAGTGGTAGGATGCAGCGGACAGTGTGGGACCATCGCTGCGGATGTATGAATCGCACTGCTCCTGAACGTAC
binding result [1]: binds

B2: Scrambled Capt-4 (ssDNA)
DNA: GAAGGATTCGGACTAGGATCCGGTCCAACTACCGGTGCCCTAATGGCATCAAAACTGCGTACCGAGCGTGTTTATCTTTCTG
binding result [2]: no binding

B3: Anti-G7 (ssDNA)
DNA: CAGGTCCATCGAGTGGTAGGACCCAACCCACGATGCGCAAGAGGAATGCAGCCTACCAGCATCGCACTGCTCCTGAACGTAC
binding result [1]: binds

B4: Capt-2 (ssDNA)
DNA: CAGGTCCATCGAGTGGTAGGAGGAGGTATTTAGTGCCAAGCCATCTCAAACGACGTCTGAGTCGCACTGCTCCTGAACGTAC
Kd [3]: 4.4 nM

B5: Lapt-2 (Anti-G1) (ssDNA)
DNA: B4 DNA
Kd [4]: 5.6 nM

B6: Scrambled Capt-2 (ssDNA)
DNA: CGGGAGTACGCATGTATGAGACACCCACGCTATGTCCCTACTATGAGGTGGAGACTTGCTACGTGCATCGCAGATCGGTCAA
binding result [2]: no binding

B7: Capt-4 (ssDNA)
DNA: CAGGTCCATCGAGTGGTAGGACGACCCGAATAGTGGCATATCAATGAGTGCTTGTCATCTTTCGCACTGCTCCTGAACGTAC
binding result [5]: no binding | binding result (toxin B (TcdB)): no binding | binding result (toxin A (TcdA)): no binding | Kd [6]: 12.3 nM | Kd [7]: 2.8 nM

B8: Lapt-4 (ssDNA)
DNA: B7 DNA
Kd [8]: 293 nM

B9: Anti-G1T1 (ssDNA)
DNA: TAGGAGGAGGTATTTAGTGCCAAGCCATCTCAAACGACGTCTGAGTCGCACTGCTCCTG
binding result [9]: binds
